Experimental data published in publication PMC12996321.

B1: Sdna3 DNA+ 50 bp (dsDNA)
DNA 1: AGCACCGCTTAAACGCACGTACGCTTTGTTCCCCGCGTTTTAACCGCCAA
DNA 2: TTGGCGGTTAAAACGCGGGGAACAAAGCGTACGTGCGTTTAAGCGGTGCT

Legend:
[1] = target: recombinant human histone octamer assembled into mononucleosomes on 250 bp 601 Widom DNA (human) (UniProt Q71DI3); assay: single-molecule TIRF colocalisation
[2] = target: Halo-Sox2 (UniProt P48432 1-319); assay: single-molecule TIRF
Halo-Sox2, sequence (P48432 whole entry): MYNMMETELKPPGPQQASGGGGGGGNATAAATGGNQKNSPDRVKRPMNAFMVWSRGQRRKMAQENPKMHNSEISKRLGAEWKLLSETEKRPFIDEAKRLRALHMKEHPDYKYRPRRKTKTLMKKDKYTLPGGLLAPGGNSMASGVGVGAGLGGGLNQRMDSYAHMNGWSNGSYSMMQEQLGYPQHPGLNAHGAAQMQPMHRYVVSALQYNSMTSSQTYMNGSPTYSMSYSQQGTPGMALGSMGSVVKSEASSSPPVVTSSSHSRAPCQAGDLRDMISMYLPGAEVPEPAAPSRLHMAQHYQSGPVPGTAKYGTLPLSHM

Molecule	residence time tau2 on MN-6 (state attributed to TF-histone interactions) [1] [s]	binding result [2]
Halo-Sox2 (recombinant, JF549-labelled) (from UniProt P48432 1-319) (natural protein)	3.4	
B1		binds
